# From patent publication US20240141038A1 (SHANGHAI QILU PHARMACEUTICAL RESEARCH AND DEVELOPMENT CENTRE, published 2024)
# Numbering of substitutions follows the chain as printed.
# B1: NKp46-PA28 VHH (his and c-Myc labels) (VHH)
# VHH: QVQLVESGGGLVQAGDSLRLSCVASGRTFSTYAMGWFRQAPGKEREFVAAISRNADTTYYADSVKGRFTISRDNAKNTVYLQMNSLKPEDTAVYYCAADRYSSNTQVGVARTYYDYWGQGTQVTVSS
# notes: IPTG-induced E. coli supernatant used in the screening ELISA; also called NKp46-PA28 clone supernatant; not shown: his and c-Myc labels
# B2: NKp46-PA26 VHH (his and c-Myc labels) (VHH)
# VHH: QVQLVESGGGMVQAGGSLRLSCAASGRTFNTIHWFRQAPGKEREFVARIWWIGGATFYADSVKGRFTISRDNTENLVYLQMNSLKPEDTAVYYCAADARYTSHGYYESDYWGPGTQVTVSS
# notes: IPTG-induced E. coli supernatant used in the screening ELISA; also called NKp46-PA26 clone supernatant; not shown: his and c-Myc labels
# B3: H2-PC11 humanized antibody (antibody, human IgG1, V domains shown)
# VH: EVQLVESGGGLVQPGGSLRLSCAPSPYSANSFSMAWFRQAPGKGLEGIACIQAESGSTNVAPSVKGRFTISQDNSKNTLYLQMNSLRAEDTAVYYCAAFKRNVGGCELRPEHWRFWGQGTLVTVSS
# notes: not shown: constant region of human IgG1
# B4: H4-PC11 humanized antibody (antibody, human IgG1, V domains shown)
# VH: B3 VH with L45R
# notes: as for B3
# B5: H5-PC11 humanized antibody (antibody, human IgG1, V domains shown)
# VH: B3 VH with G44E, L45R
# notes: as for B3
# B6: H3-PC11 humanized antibody (antibody, human IgG1, V domains shown)
# VH: B3 VH with P24A, L45R, I48V
# notes: as for B3
# B7: H3-PA45 humanized antibody (antibody, V domains shown)
# VH: EVQLVESGGGLVQPGGSLRLSCAASGRTFSRLPMAWFRQAPGKGREFVAAISWSGGSTYYADSMKGRFTISRDNSKNTAYLQMNSLRAEDTAVYYCAAVGDSAPYSATIVYTDARAYAYWGQGTLVTVSS
# notes: as for B3
# B8: H3-PA31 humanized antibody (antibody, human IgG1, V domains shown)
# VH: EVQLVESGGGLVQPGGSLRLSCAVSGRTFSRLPMGWFRQAPGKGREFVAAISWSSSTTYYADSVKGRFTISRDNSKNTAYLQMNSLRAEDTAVYYCAAVGGSLDYSATVVYTAARAYADWGQGTLVTVSS
# notes: as for B3
# B9: H1-PA45 humanized antibody (antibody, human IgG1, V domains shown)
# VH: B7 VH with F37V, R45L, F47W, A49S, A79L
# notes: also called hPA45; not shown: constant region of human IgG1
# B10: H1-PA27 humanized antibody (antibody, human IgG1, V domains shown)
# VH: QVQLVESGGGVVQPGRSLRLSCAASGRTESWYRMGWVRQAPGKGLEWVARISGDTNIKYYAGSVKGRFTISRDNSKNTLYLQMSSLRAEDTAVYYCAADRTGATWDYWGQGTLVTVSS
# notes: also called hPA27; not shown: constant region of human IgG1
# B11: H4-PA27 humanized antibody (antibody, human IgG1, V domains shown)
# VH: B10 VH with Q1D, V37F, L45R, W47V
# notes: as for B3
# B12: H3-PA27 humanized antibody (antibody, human IgG1, V domains shown)
# VH: B10 VH with V37F, L45R, W47V
# notes: as for B3
# B13: H4-PA31 humanized antibody (antibody, human IgG1, V domains shown)
# VH: B8 VH with G44D
# notes: as for B3
# Molecular target: T1, Human NKp46 antigen for immunization, screening, and testing (Kactus, NKP-HM146) (human, UniProt O76036 22-255)
# T1 construct: Bought protein; also called human NKp46 antigen protein; human NKp46 protein
# T1 sequence (O76036 other isoform, or with tags, fused parts or gaps limits assumed): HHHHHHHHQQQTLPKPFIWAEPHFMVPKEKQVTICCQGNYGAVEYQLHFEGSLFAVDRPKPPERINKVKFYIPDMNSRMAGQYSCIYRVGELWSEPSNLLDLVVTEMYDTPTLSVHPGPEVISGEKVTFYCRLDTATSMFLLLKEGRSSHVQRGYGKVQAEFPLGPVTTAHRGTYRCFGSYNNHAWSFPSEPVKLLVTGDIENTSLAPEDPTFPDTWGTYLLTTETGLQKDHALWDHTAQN
# Assay: ELISA, coated antigen, VHH supernatant, anti-Myc HRP
# Method: (§1) In order to obtain positive antibodies that can cross-bind to human NKp46 and cynomolgus monkey NKp46, the above libraries were amplified and added into M13K07 helper phage and assembled into bacteriophages. 1×10¹² pfu of immune camel antibody library and immune alpaca antibody library were added thereto, and the phages were incubated with biotinylated human NKp46 protein (8 μg/mL) bound to magnetic beads for 1 h at room temperature. After washing off the unbound bacteriophages with 0.05% PBST, the phages specifically bound to NKp46 were eluted with […] triethylamine, and after gradient dilution of the bacteriophages above, E. coli SS320 in the logarithmic growth phase were infected. After being cultured overnight at 37° C. on plates containing ampicillin, single-clone was picked for IPTG-induced expression, and the supernatant was used for ELISA assay. ELISA plates were coated with […] human NKp46 antigen or cynomolgus monkey NKp46 antigen overnight at 4° C., then washed 3 times with 0.05% PBST and blocked with 5% skim milk at room temperature for 1 h, and washed 3 times with 0.05% PBST. Then 30 µL of induced supernatant was then added into per well, medium were added to negative control wells, the ELISA plates were incubated at room temperature for 1 h, and finally detected with anti-Myc HRP (VHH with his and c-Myc labels were expressed by the induction of IPTG. Sequence clones that had OD450 values of greater than 1.0 for binding to human NKp46 and cynomolgus monkey NKp46 as determined by ELISA, and of which the ratio of OD450 values to that of negative control were greater than 3 were sequenced, thereby obtaining amino acid sequences of 30 variable regions of heavy chain antibodies disclosed in the present disclosure, as shown in Table 2.
OD450,ratio of OD450 to negative control,Binder
> 1,> 3,B1
> 1,> 3,B2

# Molecular target: T2, Cynomolgus monkey NKp46 for immunization, screening, and testing (Kactus, NKP-CM146) (cynomolgus monkey, UniProt Q95JB9 22-254)
# T2 construct: Bought protein; also called monkey NKp46 antigen protein; cynomolgus monkey NKp46 antigen
# T2 sequence (Q95JB9 other isoform, or with tags, fused parts or gaps limits assumed): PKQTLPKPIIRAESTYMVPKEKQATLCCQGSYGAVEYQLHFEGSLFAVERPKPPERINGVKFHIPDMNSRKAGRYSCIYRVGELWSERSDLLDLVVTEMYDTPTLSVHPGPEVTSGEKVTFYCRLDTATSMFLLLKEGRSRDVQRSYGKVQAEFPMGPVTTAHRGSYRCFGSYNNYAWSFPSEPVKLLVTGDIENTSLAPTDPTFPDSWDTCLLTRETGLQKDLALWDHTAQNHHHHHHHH
# Assay: as above
# Method: as §1
OD450,ratio of OD450 to negative control,Binder
> 1,> 3,B1
> 1,> 3,B2

# Molecular target: T3, cynomolgus monkey NKp46 (full length, on cells) (cynomolgus monkey, UniProt Q95JB9 22-306)
# T3 construct: also called cynomolgus monkey NKp46-CHOK1; cynomolgus NKp46-CHOK1
# T3 sequence (Q95JB9 22-306): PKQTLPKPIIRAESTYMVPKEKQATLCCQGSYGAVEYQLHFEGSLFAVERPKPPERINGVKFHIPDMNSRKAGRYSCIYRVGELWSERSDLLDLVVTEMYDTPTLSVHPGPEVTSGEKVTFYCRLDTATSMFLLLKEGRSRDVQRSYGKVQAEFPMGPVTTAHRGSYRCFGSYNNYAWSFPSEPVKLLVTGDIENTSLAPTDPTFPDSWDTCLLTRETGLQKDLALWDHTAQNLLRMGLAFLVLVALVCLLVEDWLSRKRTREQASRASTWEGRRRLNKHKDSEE
# Assay: flow cytometry on cynomolgus monkey NKp46-CHOK1 cells
# Method: (§2) The stable human NKp46-CHOK1 and cynomolgus monkey NKp46-CHOK1 cell lines obtained in Example 2 were cultured, the cells were digested with 0.25% pancreatic enzyme EDTA for about 5 minutes, and the digestion was terminated with the complete medium. After centrifugation at 1,500 rpm for 5 minutes, the supernatant was discarded, the precipitated cells were resuspended with PBS containing 1% BSA and counted. The cell density was adjusted to 1E6/mL and seeded in a corning-3799 96-well culture plate at 100 μL/well. Aftering centrifuging at 1,500 rpm for 5 minutes, the supernatant was discarded and the precipitate was set aside at 4° C. The antibody solutions were prepared with PBS containing 1% BSA, wherein the antibody solution has an initial concentration was 100 nM, then diluted in 10-fold to obtain 7 gradients: 10⁻⁴ nM, 10⁻³ nM, 10⁻² nM, 10⁻¹ nM, […], and 10² nM. The prepared antibody solutions were used to resuspend the cells, 100 μL/well. The resuspended cell culture plates were incubated in a 4° C. freezer for 1 h. After centrifugation at 1500 rpm for 5 minutes, the supernatant was discarded. The precipitate was washed with 160 μL of PBS containing 1% BSA, the supernatant was discarded, and the cells were stored for later use.
# (§3) The Secondary antibody (goat anti human IgG Fc PE) solution was prepared with PBS containing 1% BSA, and diluted 1:200. The cells were resuspended with the prepared secondary antibody solution, 100 μL/well, incubated in a 4° C. freezer for 0.5 h. After centrifugation at 1,500 rpm for 5 minutes, the supernatant was discarded, the precipitated cells were washed with 160 μL of PBS containing 1% BSA, the supernatant was discarded, the cells were resuspended with 100 μL of PBS containing 1% BSA, and filtered in 300-mesh gauze. The mean fluorescence intensity of antibody binding to cells was then analyzed on a flow cytometer. The FCS file was exported from the flow cytometer, the mean fluorescence intensity (hereinafter referred to as MFI) of PE channel was analyzed with Flowjo software, and the mean fluorescence intensity obtained was introduced into the Graphpad to analyze the half binding concentration (hereinafter referred to as EC₅₀) and the top mean fluorescence intensity (Top MFI) of the antibody and the cell.
EC50,Top MFI,Binder
0.301 nM,3540,B3
0.274 nM,3620,B4
0.27 nM,3660,B5
0.297 nM,3280,B6
1.52 nM,3330,B7
1.16 nM,3210,B8
11.1 nM,3120,B9
0.338 nM,2540,B10
0.074 nM,3880,B11
0.072 nM,4060,B12
1.3 nM,3340,B13

# Molecular target: T4, human NKp46 (full length, on cells) (human, UniProt O76036 22-304)
# T4 sequence (O76036 22-304 Q82K): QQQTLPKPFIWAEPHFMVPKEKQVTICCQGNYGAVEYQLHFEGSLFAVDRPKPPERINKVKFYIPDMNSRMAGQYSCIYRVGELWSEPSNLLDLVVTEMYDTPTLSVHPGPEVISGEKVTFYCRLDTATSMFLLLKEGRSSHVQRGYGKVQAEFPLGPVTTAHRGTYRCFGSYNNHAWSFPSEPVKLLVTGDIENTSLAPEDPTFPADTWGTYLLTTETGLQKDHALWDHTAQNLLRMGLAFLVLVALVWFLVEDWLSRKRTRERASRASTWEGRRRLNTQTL
# Assay: cell-based or functional assay
"EC50 of NK cell activation (CD107a-positive NK cells, plate-coated antibody)","Top mean fluorescence intensity (Top MFI), NK cell activation (CD107a)",Binder
0.87 nM,18.8,B3
1.84 nM,19.3,B4
0.95 nM,23.6,B5
1.21 nM,19.6,B6
0.58 nM,34,B7
0.75 nM,31.6,B8
7.39 nM,30.8,B9
> 20 nM,6.3,B10
10.7 nM,18.1,B11
7.39 nM,14.4,B12
0.38 nM,34.1,B13

# Molecular target: T4, human NKp46 (full length, on cells)
# Assay: flow cytometry on human NKp46-CHOK1 cells
# Method: as §2, §3
EC50,Top MFI,Binder
0.363 nM,6940,B3
0.305 nM,7240,B4
0.302 nM,7370,B5
0.328 nM,6830,B6
0.188 nM,5720,B7
0.148 nM,5980,B8
0.543 nM,5090,B9
0.253 nM,6000,B10
0.145 nM,6650,B11
0.153 nM,6820,B12
0.162 nM,5950,B13

# Molecular target: T1, Human NKp46 antigen for immunization, …
# Assay: SPR (Biacore 8K), antibody captured on anti-human Fc, NKp46 as analyte, 1:1 fit
# Method: Human NKp46 was diluted in two-fold to a serial concentration (400 nM-3.125 nM), then combined for 90 s at a flow rate of 50 μL/min, and dissociated for 500 s.
# At the end of each round of experiments, 3 M MgCl₂ solution was used to rinse at a flow rate of 30 μL/min for 30 s, and the captured antibody was removed along with the antigen to complete the regeneration of the chip. The raw data were analyzed using Biacore Insight Evaluation Software (version 3.0.12.15655) software and (1:1) Langmuir model was fit to the data. Compared with the anti-NKp46 humanized antibody and the corresponding chimeric antibody, the affinity to the human NKp46 antigen protein is mostly maintained.
Kd,koff,kon,Binder
2.05 nM,0.000126 s⁻¹,61300 M⁻¹ s⁻¹,B3
1.14 nM,7.75e-05 s⁻¹,67800 M⁻¹ s⁻¹,B6
23.7 nM,0.00266 s⁻¹,112000 M⁻¹ s⁻¹,B11
5.89 nM,0.00103 s⁻¹,175000 M⁻¹ s⁻¹,B13
